Experimental data published in patent US20150301068A1 (VIB VZW, published 2015).

Biological target: the molecule itself
Assay: Western blot of HEK lysates after detergents, 95 C and beta-mercaptoethanol; homodimer band at about 50 kDa

B1: tetraspanin 6 (TSPAN6) (other)
chain: MASPSRRLQTKPVITCFKSVLLIYTFIFWITGVILLAVGIWGKVSLENYFSLLNEKATNVPFVLIATGTVIILLGTFGCFATCRASAWMLKLYAMFLTLVFLVELVAAIVGFVFRHEIKNSFKNNYEKALKQYNSTGDYRSHAVDKIQNTLHCCGVTDYRDWTDTNYYSEKGFPKSCCKLEDCTPQRDADKVNNEGCFIKVMTIIESEMGVVAGISFGVACFQLIGIFLAYCLSRAITNNQYEIV
notes: Endogenous TSPAN6 in HEK cell lysates, exosomes and human CSF, on Western blots; also called tetraspanin TM4-D; tetraspanin TM4SF
binding result: binds
